Test results as given in the supplement of paper PMC9112550, “Optimization of the antimicrobial peptide Bac7 by deep mutational scanning” (BMC Biology, 2022).

test system: Escherichia coli TOP10; experiment: shrunken log2 fold change of peptide-encoding DNA abundance (4.5 h post-induction vs induction); higher = less antimicrobial activity (less host growth inhibition); details: time post-induction: 4.5 h; library: site-saturation at positions 5, 18, 19, 20
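Note: peptides expressed intracellularly from a pBAD plasmid library in pooled LB shake-flask culture, induced with 0.3% L-arabinose, DNA abundance read by NGS, three biological replicates, DESeq2 with apeglm shrinkage.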

Sequence	shrunken log2 fold change
RRIRLRPPRLPRPRPRPFILPRP	-0.978
RRIRFRPPRLPRPRPRPVHGPRP	0.284
RRIRIRPPRLPRPRPRPNRCPRP	-0.154
RRIRWRPPRLPRPRPRPEFQPRP	0.118
RRIRCRPPRLPRPRPRPQLVPRP	0.569
RRIRDRPPRLPRPRPRPYIIPRP	-0.758
RRIRWRPPRLPRPRPRPVPRPRP	0.549
RRIRPRPPRLPRPRPRPECIPRP	-0.0733
RRIRTRPPRLPRPRPRPDAFPRP	-0.014
RRIRERPPRLPRPRPRPIQVPRP	-0.0549
RRIRYRPPRLPRPRPRPKKAPRP	-0.0344
RRIRQRPPRLPRPRPRPVDQPRP	0.0619
RRIRERPPRLPRPRPRPTDCPRP	-0.399
RRIRWRPPRLPRPRPRPVSNPRP	0.0778
RRIRMRPPRLPRPRPRPFDTPRP	-0.0634
RRIRYRPPRLPRPRPRPRQMPRP	-0.0779
RRIRRRPPRLPRPRPRPLSKPRP	1.95
RRIRLRPPRLPRPRPRPMLCPRP	-0.0499
RRIRYRPPRLPRPRPRPCQMPRP	-0.255
RRIRCRPPRLPRPRPRPCGHPRP	-0.101
RRIRPRPPRLPRPRPRPCKCPRP	-0.275
RRIRERPPRLPRPRPRPMMIPRP	-0.251
RRIRWRPPRLPRPRPRPTCKPRP	-0.0078
RRIRQRPPRLPRPRPRPAQCPRP	-0.017
RRIRFRPPRLPRPRPRPTHIPRP	-0.496

Sequence	shrunken log2 fold change
RRIRQRPPRLPRPRPRPHQAPRP	-0.241
RRIRSRPPRLPRPRPRPWMMPRP	-0.165
RRIRARPPRLPRPRPRPFMAPRP	-0.163
RRIRARPPRLPRPRPRPENTPRP	0.397
RRIRSRPPRLPRPRPRPYWMPRP	-0.648
RRIRNRPPRLPRPRPRPMGSPRP	-0.01
RRIRKRPPRLPRPRPRPIKDPRP	-0.00059
RRIRYRPPRLPRPRPRPVLYPRP	-0.0955
RRIRQRPPRLPRPRPRPGIAPRP	0.719
RRIRHRPPRLPRPRPRPCLLPRP	-0.342
RRIRWRPPRLPRPRPRPATIPRP	-0.0366
RRIRHRPPRLPRPRPRPCDIPRP	-0.0274
RRIRSRPPRLPRPRPRPWFIPRP	-0.311
RRIRVRPPRLPRPRPRPKCHPRP	-0.242
RRIRTRPPRLPRPRPRPDWHPRP	-0.053
RRIRERPPRLPRPRPRPYFMPRP	-0.784
RRIRDRPPRLPRPRPRPPYWPRP	0.246
RRIRNRPPRLPRPRPRPPYNPRP	-0.627
RRIRNRPPRLPRPRPRPHRLPRP	-0.00303
RRIRIRPPRLPRPRPRPEDYPRP	-0.0393
RRIRGRPPRLPRPRPRPPMPPRP	0.659
RRIRIRPPRLPRPRPRPNPFPRP	-0.502
RRIRFRPPRLPRPRPRPPSSPRP	0.208
RRIRRRPPRLPRPRPRPGENPRP	0.066
RRIRPRPPRLPRPRPRPVFMPRP	-0.185

Sequence	shrunken log2 fold change
RRIRHRPPRLPRPRPRPEYYPRP	-0.241
RRIRARPPRLPRPRPRPFGKPRP	0.0252
RRIRSRPPRLPRPRPRPSIVPRP	-0.525
RRIRGRPPRLPRPRPRPQVDPRP	0.266
RRIRARPPRLPRPRPRPTFVPRP	0.203
RRIRDRPPRLPRPRPRPHKTPRP	-0.0521
RRIRERPPRLPRPRPRPVMAPRP	-0.0537
RRIRCRPPRLPRPRPRPMYRPRP	-0.319
RRIRIRPPRLPRPRPRPSAGPRP	-0.334
RRIRCRPPRLPRPRPRPFTHPRP	-0.818
RRIRERPPRLPRPRPRPAFNPRP	0.495
RRIRIRPPRLPRPRPRPKMHPRP	-0.299
RRIRLRPPRLPRPRPRPELCPRP	0.173
RRIRSRPPRLPRPRPRPLQTPRP	0.436
RRIRWRPPRLPRPRPRPDMWPRP	0.228
RRIRHRPPRLPRPRPRPFANPRP	-0.483
RRIRLRPPRLPRPRPRPYMEPRP	0.039
RRIRRRPPRLPRPRPRPNNPPRP	0.0225
RRIRIRPPRLPRPRPRPMDEPRP	0.00773
RRIRKRPPRLPRPRPRPLWHPRP	0.0951
RRIRLRPPRLPRPRPRPERAPRP	0.705
RRIRVRPPRLPRPRPRPINCPRP	-0.12
RRIRYRPPRLPRPRPRPMKFPRP	-0.0276
RRIRHRPPRLPRPRPRPNFAPRP	0.303
RRIRQRPPRLPRPRPRPRHSPRP	-0.185

Sequence	shrunken log2 fold change
RRIRERPPRLPRPRPRPPNWPRP	0.368
RRIRVRPPRLPRPRPRPTICPRP	-0.604
RRIRIRPPRLPRPRPRPNWHPRP	-0.227
RRIRLRPPRLPRPRPRPTQMPRP	0.333
RRIRCRPPRLPRPRPRPIHNPRP	-0.725
RRIRFRPPRLPRPRPRPDRGPRP	0.0145
RRIRVRPPRLPRPRPRPCLRPRP	-0.146
RRIRTRPPRLPRPRPRPTCLPRP	-0.216
RRIRNRPPRLPRPRPRPVYNPRP	-0.381
RRIRDRPPRLPRPRPRPQCAPRP	0.0622
RRIRFRPPRLPRPRPRPVFCPRP	-0.0281
RRIRTRPPRLPRPRPRPTRYPRP	0.228
RRIRGRPPRLPRPRPRPKQLPRP	-0.00285
RRIRIRPPRLPRPRPRPSWLPRP	-0.373
RRIRDRPPRLPRPRPRPDQQPRP	0.0408
RRIRPRPPRLPRPRPRPMWDPRP	-0.0234
RRIRGRPPRLPRPRPRPWVVPRP	0.273
RRIRERPPRLPRPRPRPFPNPRP	-0.165
RRIRTRPPRLPRPRPRPCKAPRP	-0.00146
RRIRERPPRLPRPRPRPWWRPRP	0.098
RRIRSRPPRLPRPRPRPKWHPRP	0.0951
RRIRIRPPRLPRPRPRPFYIPRP	-0.308
RRIRMRPPRLPRPRPRPPFSPRP	0.239
RRIRQRPPRLPRPRPRPRWHPRP	0.197
RRIRPRPPRLPRPRPRPCWLPRP	-0.018

Sequence	shrunken log2 fold change
RRIRVRPPRLPRPRPRPPTHPRP	0.117
RRIRGRPPRLPRPRPRPVNPPRP	0.127
RRIRWRPPRLPRPRPRPRLNPRP	0.545
RRIRKRPPRLPRPRPRPFWLPRP	0.341
RRIRPRPPRLPRPRPRPYPNPRP	-0.159
RRIRIRPPRLPRPRPRPMRVPRP	0.109
RRIRPRPPRLPRPRPRPLELPRP	0.0125
RRIRVRPPRLPRPRPRPCRKPRP	0.068
RRIRYRPPRLPRPRPRPPAQPRP	0.23
RRIRFRPPRLPRPRPRPAIDPRP	-0.00326
RRIRPRPPRLPRPRPRPVWPPRP	0.341
RRIRQRPPRLPRPRPRPPSTPRP	0.179
RRIRVRPPRLPRPRPRPCWSPRP	0.0821
RRIRDRPPRLPRPRPRPIKIPRP	0.0725
RRIRNRPPRLPRPRPRPVNDPRP	-0.15
RRIRERPPRLPRPRPRPVEQPRP	-0.209
RRIRYRPPRLPRPRPRPGPIPRP	-0.0295
RRIRLRPPRLPRPRPRPHYKPRP	-0.525
RRIRNRPPRLPRPRPRPVRCPRP	0.0872
RRIRIRPPRLPRPRPRPLQDPRP	-0.31
RRIRERPPRLPRPRPRPVFMPRP	-0.356
RRIRCRPPRLPRPRPRPETIPRP	-0.0356
RRIRRRPPRLPRPRPRPREMPRP	0.513
RRIRGRPPRLPRPRPRPLRVPRP	1
RRIRLRPPRLPRPRPRPGTYPRP	0.386
